The text below walks through data of patent publication US20150025225A1 (SHIONOGI, published 2015).

The target in this experiment is T1, Baboon EL-C2 tag (baboon, UniProt Q9Y5X9 21-500 (human entry), limits assumed).
T1 construct: used as heparin extract of transfected HEK293F cells; also called baboon EL heparin extract
T1 chain: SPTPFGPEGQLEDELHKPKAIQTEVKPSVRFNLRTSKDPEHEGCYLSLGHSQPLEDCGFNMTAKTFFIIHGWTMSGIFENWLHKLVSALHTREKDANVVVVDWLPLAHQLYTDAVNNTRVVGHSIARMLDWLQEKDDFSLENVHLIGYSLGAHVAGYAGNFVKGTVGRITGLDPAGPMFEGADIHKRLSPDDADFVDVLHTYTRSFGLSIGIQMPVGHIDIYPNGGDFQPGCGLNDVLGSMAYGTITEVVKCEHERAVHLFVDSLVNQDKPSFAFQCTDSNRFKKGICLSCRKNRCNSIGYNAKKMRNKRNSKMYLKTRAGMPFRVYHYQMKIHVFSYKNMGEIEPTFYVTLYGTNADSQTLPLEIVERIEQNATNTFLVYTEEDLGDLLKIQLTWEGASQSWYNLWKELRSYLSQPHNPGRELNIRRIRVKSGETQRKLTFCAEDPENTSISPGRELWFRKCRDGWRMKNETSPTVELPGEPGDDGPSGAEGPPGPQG
Kind of experiment: ELISA-type titration, A450 against antibody concentration; protocol not described in the text.

B1: 12B10 antibody (antibody, IgG2a, V domains shown)
VH: QVTLKESGPGILKPSQTLSLTCSFSGFSLSTSGMGVGWIRQPSGKGLEWLAHIWWNDEKYYNPSLKSQLTISKDTSRNQVFLKITSVDTADTATYYCARSYDGSPFPSWGQGTLVTVSA
VL: DIQMTQSPSSLSASLGGKVTITCKASQDINKYIAWFQHKPGKGPRLLMAYPFTLQPGIPSRFSGNGSGRDYSFSISNLEPEDIATYYCLQYDNLLWTFGGGTRLEIK
For the molecule B1, the EC50 (read off the curve) (in general, the midpoint of the concentration-response curve) is roughly 0.02 mg/L.
